In patent US20210063414A1, “METHODS FOR PREVENTING AND/OR TREATING BONE LOSS CONDITIONS BY MODULATING IRISIN” (Dana-Farber Cancer Institute, Inc., priority 2018, published 2021):

Molecular target: T1, MLO-Y4 cell surface proteins (Mus musculus, UniProt P59242)
T1 construct: endogenous in cells; host or cells: MLO-Y4
T1 sequence (P59242 1-1191): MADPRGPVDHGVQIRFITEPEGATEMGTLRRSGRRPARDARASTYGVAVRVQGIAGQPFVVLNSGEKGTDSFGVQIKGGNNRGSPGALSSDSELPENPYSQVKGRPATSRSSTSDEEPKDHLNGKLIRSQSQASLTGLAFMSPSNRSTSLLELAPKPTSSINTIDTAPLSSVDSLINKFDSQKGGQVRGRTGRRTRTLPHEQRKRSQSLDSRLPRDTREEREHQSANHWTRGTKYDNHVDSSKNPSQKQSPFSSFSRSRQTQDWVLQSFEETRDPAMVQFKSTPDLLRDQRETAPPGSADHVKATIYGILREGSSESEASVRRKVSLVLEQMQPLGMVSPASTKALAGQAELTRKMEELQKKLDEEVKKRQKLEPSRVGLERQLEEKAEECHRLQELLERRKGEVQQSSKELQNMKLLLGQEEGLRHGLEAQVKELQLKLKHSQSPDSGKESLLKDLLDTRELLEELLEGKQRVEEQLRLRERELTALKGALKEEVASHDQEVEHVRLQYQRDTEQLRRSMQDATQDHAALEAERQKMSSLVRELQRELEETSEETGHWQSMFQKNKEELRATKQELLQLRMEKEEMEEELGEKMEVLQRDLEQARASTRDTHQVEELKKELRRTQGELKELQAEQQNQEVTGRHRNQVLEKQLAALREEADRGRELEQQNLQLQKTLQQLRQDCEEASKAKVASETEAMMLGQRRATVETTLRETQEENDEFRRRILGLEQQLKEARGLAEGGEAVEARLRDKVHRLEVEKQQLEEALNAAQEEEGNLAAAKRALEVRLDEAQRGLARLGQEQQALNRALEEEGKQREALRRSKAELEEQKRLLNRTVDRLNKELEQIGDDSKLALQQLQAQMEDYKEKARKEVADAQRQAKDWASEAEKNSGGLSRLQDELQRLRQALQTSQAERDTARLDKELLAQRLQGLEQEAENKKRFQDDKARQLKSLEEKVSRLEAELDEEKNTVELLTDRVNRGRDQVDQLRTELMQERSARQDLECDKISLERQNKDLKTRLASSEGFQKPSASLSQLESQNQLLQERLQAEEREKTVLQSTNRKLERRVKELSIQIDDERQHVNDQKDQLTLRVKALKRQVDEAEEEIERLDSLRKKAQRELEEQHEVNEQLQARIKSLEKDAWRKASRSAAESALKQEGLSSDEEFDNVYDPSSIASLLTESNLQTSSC
Assay: Crosslinking/co-immunoprecipitation/mass spectrometry (TMT quantitative proteomics) to identify irisin receptors
Assay type: binding
Details: co-precipitated protein Cgn (CING_MOUSE)
How it was run: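 Mouse MLO-Y4 cells were switched to serum-free FreeStyle medium for 4 h, chilled, then exposed to 10 nM His-tagged irisin (or adipsin as control) for 20 min. Cells were crosslinked with 1.5 mM DTSSP (30 min, ice), and bound proteins were pulled down on Ni-NTA and eluted with 250 mM imidazole. Eluates were separated by SDS-PAGE, trypsin-digested in gel, TMT 6-plex labelled and quantified by MS3-based LC-MS/MS on an Orbitrap Fusion Lumos.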

- TMT signal-to-noise ratio: 200.289
Substance: adipsin
